Data: paper PMC5484413 (Nature structural & molecular biology, 2016)
Where a chain is given by its changes, count along the chain named. In names and notes the source's numbering stands.

T1: GST-NPP-14 (C. elegans, UniProt Q17602 1-1390)
T1 sequence (looked up): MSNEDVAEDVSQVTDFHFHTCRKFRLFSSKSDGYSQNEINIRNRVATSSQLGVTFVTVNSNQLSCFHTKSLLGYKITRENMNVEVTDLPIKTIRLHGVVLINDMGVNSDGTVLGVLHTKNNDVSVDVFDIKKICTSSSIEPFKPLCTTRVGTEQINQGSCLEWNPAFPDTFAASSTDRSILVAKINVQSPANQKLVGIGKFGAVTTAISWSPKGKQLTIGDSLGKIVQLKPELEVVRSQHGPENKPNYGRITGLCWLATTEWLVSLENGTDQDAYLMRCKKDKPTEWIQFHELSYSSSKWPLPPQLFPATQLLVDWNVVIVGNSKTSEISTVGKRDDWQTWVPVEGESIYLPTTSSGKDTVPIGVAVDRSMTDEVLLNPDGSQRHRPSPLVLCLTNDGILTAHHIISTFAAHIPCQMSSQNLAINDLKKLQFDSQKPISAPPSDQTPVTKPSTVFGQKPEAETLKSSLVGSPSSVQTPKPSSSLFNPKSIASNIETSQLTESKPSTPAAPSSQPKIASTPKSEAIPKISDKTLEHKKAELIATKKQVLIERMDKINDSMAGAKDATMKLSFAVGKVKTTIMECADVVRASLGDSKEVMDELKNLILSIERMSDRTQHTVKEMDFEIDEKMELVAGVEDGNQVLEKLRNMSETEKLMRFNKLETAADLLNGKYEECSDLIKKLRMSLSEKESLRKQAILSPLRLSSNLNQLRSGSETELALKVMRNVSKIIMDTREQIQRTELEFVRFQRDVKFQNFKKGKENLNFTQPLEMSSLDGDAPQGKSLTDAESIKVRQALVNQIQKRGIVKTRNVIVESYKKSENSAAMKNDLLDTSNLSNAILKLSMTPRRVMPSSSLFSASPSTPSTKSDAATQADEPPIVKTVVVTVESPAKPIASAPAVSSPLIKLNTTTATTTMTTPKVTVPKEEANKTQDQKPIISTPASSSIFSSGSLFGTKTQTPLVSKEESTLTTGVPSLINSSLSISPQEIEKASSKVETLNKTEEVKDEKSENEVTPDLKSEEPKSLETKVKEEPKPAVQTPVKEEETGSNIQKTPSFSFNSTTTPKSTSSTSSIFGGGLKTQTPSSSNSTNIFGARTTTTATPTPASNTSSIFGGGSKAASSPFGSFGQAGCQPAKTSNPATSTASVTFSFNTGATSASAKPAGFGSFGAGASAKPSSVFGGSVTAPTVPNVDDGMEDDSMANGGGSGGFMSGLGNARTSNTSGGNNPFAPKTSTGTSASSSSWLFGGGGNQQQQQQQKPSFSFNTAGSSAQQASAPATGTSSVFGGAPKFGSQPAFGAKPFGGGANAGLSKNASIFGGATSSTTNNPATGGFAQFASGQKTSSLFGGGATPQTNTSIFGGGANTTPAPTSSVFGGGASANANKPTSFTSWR

B1: CED-3(1-220)-His6 (wild-type) (domain or fragment, C. elegans, UniProt P42573 1-220, looked up)
chain: MMRQDRRSLLERNIMMFSSHLKVDEILEVLIAKQVLNSDNGDMINSCGTVREKRREIVKAVQRRGDVAFDAFYDALRSTGHEGLAEVLEPLARSVDSNAVEFECPMSPASHRRSRALSPAGYTSPTRVHRDSVSSVSSFTSYQDIYSRARSRSRSRALHSSDRHNYSSPPVNAFPSQPSSANSSFTGCSSLGYSSSRNRSFSKASGPTQYIFHEEDMNFV
B2: CED-3(1-220)-His6 L30F (domain or fragment, C. elegans, UniProt P42573 1-220, looked up)
chain: B1 chain with L30F
B3: CED-3(1-220)-His6 L27F (domain or fragment, C. elegans, UniProt P42573 1-220, looked up)
chain: B1 chain with L27F
B4: CED-3(1-220)-His6 G65R (domain or fragment, C. elegans, UniProt P42573 1-220, looked up)
chain: B1 chain with G65R

Biological target: T1, GST-NPP-14
Assay: pull-down

| binding result | Binder |
| --- | --- |
| binds | B1 |
| binds | B2 |
| binds | B3 |
| binds | B4 |
